Laboratory results reported in US20240360224A1 (ORIONIS BIOSCIENCES, published 2024).
Numbering of substitutions follows the chain as printed. Numbers in names are those of the source.

B1: R1CHCL50 (wild type) (VHH)
VHH: QVQLVESGGGLVHPGGSLRLSCAASGSFSSINVMGWYRQAPGKERELVARITNLGLPNYADSVTGRFTISRDNAKNTVYLQMNSLKPEDTAVYYCYLVALKAEYWGQGTQVTVSS
notes: pHEN6C periplasmic expression with C-terminal his6 tag
B2: R1CHCL50_opt3 (E1D-A74S-K83R-Q108L-T64K) (VHH)
VHH: B1 VHH with Q1D, T64K, A74S, K86R, Q110L
notes: The entry already carries the named substitutions; pHEN6C, C-terminal his6 tag
B3: R1CHCL50_opt4 (E1D-A74S-K83R-Q108L-H13Q-T64K) (VHH)
VHH: B1 VHH with Q1D, H13Q, T64K, A74S, K86R, Q110L
notes: as for B2
B4: R1CHCL50_opt2 (E1D-A74S-K83R-Q108L-H13Q) (VHH)
VHH: B1 VHH with Q1D, H13Q, A74S, K86R, Q110L
notes: as for B2
B5: R1CHCL50_opt1 (E1D-A74S-K83R-Q108L) (VHH)
VHH: B1 VHH with Q1D, A74S, K86R, Q110L
notes: as for B2
B6: 3LEC_89 (wild type) (VHH)
VHH: QVQLQESGGGLVQPGGSLRLSCAASGRIFSVNAMGWYRQAPGKQRELVAAITNQGAPTYADSVKGRFTISRDNAGNTVYLQMNSLRPEDTAVYYCKAFTRGDDYWGQGTQVTVSS
notes: pHEN6C periplasmic expression with C-terminal his6 tag, no HA tag
B7: 3LEC_89_opt2 (E1D-Q5V-Q108L-A74S) (VHH)
VHH: B6 VHH with Q1D, Q5V, A74S, Q110L
notes: as for B2
B8: 3LEC_89_opt3 (E1D-Q5V-Q108L-G75K) (VHH)
VHH: B6 VHH with Q1D, Q5V, G75K, Q110L
notes: as for B2
B9: 3LEC_89_opt1 (E1D-Q5V-Q108L) (VHH)
VHH: B6 VHH with Q1D, Q5V, Q110L
notes: as for B2
B10: 3LEC_89_opt4 (E1D-Q5V-Q108L-A74S-G75K) (VHH)
VHH: B6 VHH with Q1D, Q5V, A74S, G75K, Q110L
notes: as for B2
B11: 2LEC 60 (VHH)
VHH: QVQLQESGGGLVQPGGSLRLSCAASGRFFRVNAMGWYRQVPGKQRELVAAITNGGQIAYADSVKGRFTISRDSAKNTVYLQMNSLKSEDTDVYYCNAKAAATHLSTVADYWGQGTQVTVSS
notes: Entry includes C-terminal AAA-HA-His6 (pMECS)
B12: 3LEC 13 (VHH)
VHH: B11 VHH with V40A, A58V, D91A, T102S, H103Y, L104V
notes: as for B11
B13: 1LEC 26 (VHH)
VHH: QVQLQESGGGLVQPGGSLRLSCAASGRFFRVNAMGWYRQAPGKQRELVAAITNGGQTAYADSVKGRFTISKESARNTVHLQMSSLKPEDTAVYYCTIWAADYQQYWGQGTQVTVSS
notes: as for B11
B14: 3LEC 23 (VHH)
VHH: B13 VHH with P14T, R27S, F28I, R30N, V31I, A33S, N53V, Q56R, T57L, V63A
notes: as for B11
B15: 1LEC 27 (VHH)
VHH: QVQLQESGGGLVQAGESLRLSCAASGSSDSINAMGWYRQAPGKQRELVAAITSGGRSTYIDSAKGRATISRDNARNTAYLQMSSLKAEDTAVYYCTIWNRDRQQYWGQGTQVTVSS
notes: as for B11
B16: 2LEC 67 (VHH)
VHH: QVQLQESGGGLVQAGGSLRLSCAASGRTFPGYVMAWFRQSPGQEREFAAAINWRGGDTYYADSVKGRFTISRDNVKNTVFLQMNSLKPEDTAVYFCAARLTTEYDYAYWGQGTQVTVSS
notes: as for B11
B17: 3LEC 4 (VHH)
VHH: QVQLQESGGGLVQPGGSLRLSCAASGSFFSINAMGWYRQAPGKQRELVAAITNQGRIAYADSVKGRFTISRDNAKNTVYLQMNSLKPEDTAVYYCGRPGWDYWGQGTQVTVSS
notes: as for B11
B18: 2LEC 95 (VHH)
VHH: QVQLQESGGGLVQAGGSLRLSCEASGRTFSTYAMAWFRQAPGKERDLVAAISWSGGSTEYHDSVKGRFTISRDNTKNTVYLQMNSLKAEDTAVYYCAAEVEGSGREGNFYGASWYPGQGTQVTVSS
notes: Entry includes C-terminal AAA-HA-His tag (pMECS); only five His are printed in the text
B19: 2LEC 62 (VHH)
VHH: QVQLQESGGGLVQPGGSLRLSCAAYGSIFSINAMGWYRQAPGKERELVAGITTQGRITYGNSVRGRFTISGDNAKNTVYLQMKSLKPEDTAVYYCSAWGVKTGPESGSGTLEGQGTQVTVSS
notes: as for B11
B20: 3LEC 22 (VHH)
VHH: QVQLQESGGGRVQPGGSLRLSCAAIGSIFEINSIGWYRQAPGKQRELVAAITSGGITNYANSVQGRSTISRDNVNNTVYLQMNSLKPEDSAVYYCKGFTGWGKEDYWGQGTQVTVSS
notes: as for B11
B21: 2LEC 76 (VHH)
VHH: QVQLQESGGGLVQAGESLRLSCVVSGRTFSINAMGWYRQAPGKQRELVAAITNQGRLSYVDSVKGRFTISRDNAANTVYLQMNSLKPEDTAVYYCAAFQSSGIDWGQGTQVTVSS
notes: as for B11
B22: 3LEC 9 (VHH)
VHH: QVQLQESGGGLVQAGGSLRVSCAASGRTLSNYAVGWWRQAPGKQREFVAAINWSSGGISYSNSAKGRFALSRDNAKNTVYLQMDSLKPEDTAVYYCAAASSVLSGTVDYWGQGTQVTVSS
notes: as for B11
B23: 3LEC 61 (VHH)
VHH: B22 VHH with G35A, W37F, S63A, V102I
notes: as for B11
B24: 3LEC 82 (VHH)
VHH: B22 VHH with V20L, G35A, W37F, F47L, N52W, S54A, S61A, A69V, V107A
notes: as for B11
B25: 3LEC 94 (VHH)
VHH: QVQLQESGGGSVQAGGSLRLSCAASGRTFSSYAMAWFRQAPGMERELVAAISWSGGSTYYADSVKGRFTISRDNAENTVYLQMNSLKPEDTAVYYCAAEAEGSGREGNFYERSWYQGQGTQVTVSS
notes: as for B11
B26: 2LEC 89 (VHH)
VHH: QVQLQESGGGLVQAGGSLRLSCAASGSIFSINSMGWYRQAPGKQRELVAAITNGGRTTYADSVKGRFTISRDNAKNTVYLQMDSLKPEDTAVYYCKGFSLTDDYWGQGTQVTVSS
notes: as for B11
B27: 1LEC 61 (VHH)
VHH: QVQLQESGGGLVQPGGSLRLSCAASGGISSINSMGWYRQAPGNQRELVAAITNGGRTVYGDSVKGRFTISRDSAGNTVHLQMDSLRPEDTGVYYCKAFTRGDDYWGQGTQVTVSS
notes: as for B11
B28: 2LEC 88 (VHH)
VHH: QVQLQESGGGLVQPGGSLRLSCTASGSFFSINAMGWYRQAPGNQRELVAAITNGGRIAYTDSVKGRFTISNDNAKNTVYLQMNSLKPEDTDVYYCNAKAIPIYGSTAEDYWGQGTQVTVSS
notes: as for B11
B29: 3LEC 27 (VHH)
VHH: QVQLQESGGGLVQAGGSLRLSCAASVNIGTLNSMAWYREAPGKQRELVAGITGGGQITYANSVRGRFTVSRDIAKSTAYLQMNTLKPEDTAVYYCAAYDRSATPYWGQGTQVTVSS
notes: as for B11
B30: 1LEC 51 (VHH)
VHH: B29 VHH with G29D, E39Q, G54S, I73N, A78V, K86Q, A102S
notes: as for B11
B31: 3LEC 6 (VHH)
VHH: B29 VHH with A23V, T30S, A35V, E39Q, A40S, G54S, P104A
notes: as for B11
B32: 2LEC 83 (VHH)
VHH: QVQLQESGGGLVQAGGSLRLSCAASGRTLSSYTIGWYRQAPGKQRELVAAITNQGRRTYADSVKGRFTISRDNAKNTVYLQMDSLKSEDTAVYYCKGFSPTDDFWGQGTQVTVSS
notes: as for B11
B33: 2LEC 61 (VHH)
VHH: QVQLQESGGGLVQPGGSLRLSCAASGSIVSINSMGWYRQAPGKQRELVAAITDQGRTTYADSVKGRFTISRDDAKNKNTVYLQMNSLKAEDTAVYACKAFGRFDDYWGQGTQVTVSS
notes: as for B11
B34: 3LEC 62 (VHH)
VHH: QVQLQESGGGLVQPGGSLRLSCAASGRIGSINSMGWYRQAPGKQREMVAAITNGGATVYADSVKGRFTISRDNAGNTVDLHMNSLRPEDSAVYYCTIWAADYQQYWGQGTQVTVSS
notes: as for B11
B35: 3LEC 15 (VHH)
VHH: QVQLQESGGGLVQAGGSLRLSCAASGSVFSINAMGWYRQAPEKQRELVAAITTQGRTTYEDSVKGRFTISRDGAQNTVYLQMDSLKPEDTAVYYCKAWTAKDDYWGKGTQVTVSS
notes: as for B11

Each binder was assayed against T1, biotinylated human CLEC9A (human, UniProt Q6UXN8 57-241, limits assumed, biotinylated (site not stated)) (assay: BLI (Octet), biotinylated human CLEC9A on streptavidin sensor, VHH at 50, 100 and 200 nM, global analysis).
T1 construct: Captured on a streptavidin sensor for BLI
Procedure: Affinities of the AFN's for Clec9A were determined using the bio-layer interferometry technology on an Octet system (ForteBio).

T1 sequence (Q6UXN8 57-241 limits assumed): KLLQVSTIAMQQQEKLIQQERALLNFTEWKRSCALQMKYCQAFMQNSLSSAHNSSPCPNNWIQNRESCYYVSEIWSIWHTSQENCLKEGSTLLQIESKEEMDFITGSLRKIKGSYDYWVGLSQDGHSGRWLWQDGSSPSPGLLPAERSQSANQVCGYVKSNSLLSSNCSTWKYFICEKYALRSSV

Binder	Kd [nM]	koff [s⁻¹]	kon [M⁻¹ s⁻¹]
B1	1.72	0.000705	410000
B2	1.79	0.000998	559000
B3	2.7	0.00118	438000
B4	1.15	0.000723	630000
B5	1.29	0.000635	492000
B6	1.74	0.000725	416000
B7	2.41	0.000817	338000
B8	2.56	0.00112	438000
B9	2.2	0.000861	391000
B10	2.35	0.000982	417000

The binders below were run against T2, human Clec9A (human, UniProt Q6UXN8 1-241) (assay: flow cytometry on HEK293-T cells transfected with human Clec9A; His-tagged VHH at 2 µg/ml, anti-His FITC antibody; single concentration).
T2 construct: Expressed on transfected CHO-K1, HEK293-T and HL116 cells, or native on human dendritic cells; also called hClec9A; C-type lectin domain family 9 member A
Procedure: The binding characteristics of various VHHs (as described in Example 1) were tested by flow cytometry. HEK293-T cells were transfected with a human Clec9A expression plasmid and stained with the His-tagged VHHs at 2 μg/ml, followed by staining with an anti-His Fitc conjugated antibody. Binding was measured by detecting cellular fluorescence via flow cytometry.

T2 sequence (Q6UXN8 whole entry, the tested form may be a part): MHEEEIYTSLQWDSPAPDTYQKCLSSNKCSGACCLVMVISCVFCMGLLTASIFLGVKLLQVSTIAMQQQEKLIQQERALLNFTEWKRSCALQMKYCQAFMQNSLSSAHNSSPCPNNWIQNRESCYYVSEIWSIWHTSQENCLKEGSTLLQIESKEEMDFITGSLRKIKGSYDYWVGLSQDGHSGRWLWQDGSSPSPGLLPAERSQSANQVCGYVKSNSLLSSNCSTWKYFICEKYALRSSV

Binder	binding result
B11	binds
B12	binds
B13	binds
B14	binds
B15	binds
B16	binds
B17	binds
B18	binds
B19	binds
B20	binds
B21	binds
B22	binds
B23	binds
B24	binds
B25	binds
B26	binds
B27	binds
B28	binds
B29	binds
B30	binds
B31	binds
B32	binds
B33	binds
B34	binds
B35	binds
